Results from a protein production outcome set (Wang et al. 2014).

Test: label from the status in PepcDB records

Sequence	protein production
SDFSRNLYDIGEQLDSEDLASLKFLSLDYIPQRKQEPIKDALMLFQRLQEKRMLEESNLSFLKELLFRINRLDLLITYLNTRKEEMERELQTPGRAQISAYRVMLYQISEEVSRSELRSFKFLLQEEISKCKLDDDMNLLDIFIEMEKRVILGEGKLDILKRVCAQINKSLLKIINDYEEFSKGEELCGVMTISDSPREQDSESQTLDKVYQMKSKPRGYCLIINNHNFAKAREKVPKLHSIRDRNGTHLDAGSHSVAQAGVQWCDLGSLQPPPPWFG	not failed
SDIGQVIHPDDFDKAAADDYVLHEDGEKIYFLIKSKTDEYCFTNLALVHLDGESAVSSKRVLYRYPYAHYPIRHVMFETAGTVDLDVEIKFEIGGKHYSIDVDKKQLEHVKDLYKALLAIAEKQYEGQKMLEFANSSLNHSVTILGGLRQGDMNVPQTFKDLSQESFDWLQGHYYKWNQKDFGSFYEKYINN	not failed
SDILLVHGSGYGGWCWDATIRALAAHGARARALDLPGRIFTPGLSLADHAAAILQEIRAPVTLVGHSAGGFSIAAAAEAAAPGLIERLIFLCAYAPRDGASVASMRRAQARQPLRPAIRLAPDRLSYSFDPDLAGEALFHDCPPEVRAAALARMGAEPVGPQEERIRLSARYHALPKHYIRCLEDRAIPPETQEAMTADWPAGSVSTLPAGHSPFLSCPEALAKRLISVAAN	failed
SDPEISEQDEEKKKYTSVCVGREEDIRKSERMTAVVHDREVVIFYHKGEYHAMDIRCYHSGGPLHLGEIEDFNGQSCIVCPWHKYKITLATGEGLYQSINPKDPSAKPKWCSKGVKQRIHTVKVDNGNIYVTLSKEPFKCDSDYYATGEFKVIQSSS	failed
SEAGGLPLELWRMILAYLHLPDLGRCSLVCRAWYELILSLDSTRWRQLCLGCTECRHPNWPNQPDVEPESWREAFKQHYLASKTWTKNALDLESSICFSLFRRRRERRTLSVGPGREFDSLGSALAMASLYDRIVLFPGVYEEQGEIILKVPVEIVGQGKLGEVALLASIDQHCSTTRLCNLVFTPAWFSPIMYKTTSGHVQFDNCNFENGHIQVHGPGTCQVKFCTFKNTHIFLHNVPLCVLENCEFVGSENNSVTVEGHPSADKNWAYKYLLGLIKSSPTFLPTEDSD	not failed
SEAKVTRSCAETRQVLGARGYSLNLIPPALISGEHLRVCPQEYTCCSSETEQRLIRETEATFRGLVEDSGSFLVHTLAARHRKFDEFFLEMLSVAQHSLTQLFSHSYGRLYAQHALIFNGLFSRLRDFYGESGEGLDDTLADFWAQLLERVFPLLHPQYSFPPDYLLCLSRLASSTDGSLQPFGDSPRRLRLQITRTLVAARAFVQGLETGRNVVSEALKVPVSEGCSQALMRLIGCPLCRGVPSLMPCQGFCLNVVRGCLSSRGLEPDWGNYLDGLLILADKLQGPFSFELTAESIGVKISEGLMYLQENSAKVSAQVFQECGPPDPVPARNRRAPPPREEAGRLWSMVTEEERPTTAAGTNLHRLVWELRERLARMRGFWARLSLTVCGDSRMAADASLEAAPCWTGAGRGRYLPPVVGGSPAEQVNNPELKVDASGPDVPTRRRRLQLRAATARMKTAALGHDLDGQDADEDASGSGGGQQYADDWMAGAVAPPARPPRPPYPPRRDGSGGKGGGGSARYNQGRSRSGGASIGFHTQTILILSLSALALLGPR	failed
SEDTMDRINKDHDHTTSVASRFILADVITSTAFSNASGDINTYASSYIEYEVGVDNQLYYAEVRENEPSSSSTFNNSWNGIYSSLKNARIIIDQCGEGGRDHGNDVTRGMAEVMAAYNCALIADFFGDAPCSQAALVDEKGSPVYMTPKMDTQQEIYTQIISYLDDAIANLQKEDLADVTEQDFLYAGDADKWLKFAYGLKARYTMRLINRSSNKSADYEKVLDYVSKSFTSADDQAAFDIYDSNNINPFYGFYNSRAGFGASTSLGTKLLAYNDPRANRAFFTPIVDKKRSQVAANDPSLVPAPNGSPDQSTSKYGISAFVYAKTAPTLLMSYHELMFLKAEALCRLNRDAEDALKEAVVAGLLNAENSISIAIKELGSGLNTNSSEVITETSAGKYFDDVVKAKYAANPLQETMIQKYLAMWGASGEATETYNDFRRMKGLNENFITLTNPNNSSKFPLRYPYGNSDTAANPEVKAAYGNGDYVYSEPVWWAGGSR	not failed
SEKPAGSLQEQALKRKERLKALRDRQLQGHAPADGEPERKRALEDTETEDRHRELKLRNYTPEDVELKERQVPKAKPASVDDKVKDQLEAANPEPVIEEVDLANLAPRKPDWDLKRDVAKKLEKLERRTQKAIAELIRERLKGSEEELAGAVGAVGVEEGDSD	failed
